Read-outs that look alike come from different tables or passages of the source.
Legend:
β-catenin [1] = target: β-catenin (UniProt P35222); details: cited from earlier work
β-catenin [2] = target: β-catenin (UniProt P35222); details: cited from earlier work; remark: listed apart in the source
[3] = target: HMP-2_(54arm) (C. elegans) (UniProt O44326); assay: ITC
[4] = target: HMP-2_(54end) (C. elegans) (UniProt O44326); assay: ITC

UniProt P35222, sequence (P35222 2-781): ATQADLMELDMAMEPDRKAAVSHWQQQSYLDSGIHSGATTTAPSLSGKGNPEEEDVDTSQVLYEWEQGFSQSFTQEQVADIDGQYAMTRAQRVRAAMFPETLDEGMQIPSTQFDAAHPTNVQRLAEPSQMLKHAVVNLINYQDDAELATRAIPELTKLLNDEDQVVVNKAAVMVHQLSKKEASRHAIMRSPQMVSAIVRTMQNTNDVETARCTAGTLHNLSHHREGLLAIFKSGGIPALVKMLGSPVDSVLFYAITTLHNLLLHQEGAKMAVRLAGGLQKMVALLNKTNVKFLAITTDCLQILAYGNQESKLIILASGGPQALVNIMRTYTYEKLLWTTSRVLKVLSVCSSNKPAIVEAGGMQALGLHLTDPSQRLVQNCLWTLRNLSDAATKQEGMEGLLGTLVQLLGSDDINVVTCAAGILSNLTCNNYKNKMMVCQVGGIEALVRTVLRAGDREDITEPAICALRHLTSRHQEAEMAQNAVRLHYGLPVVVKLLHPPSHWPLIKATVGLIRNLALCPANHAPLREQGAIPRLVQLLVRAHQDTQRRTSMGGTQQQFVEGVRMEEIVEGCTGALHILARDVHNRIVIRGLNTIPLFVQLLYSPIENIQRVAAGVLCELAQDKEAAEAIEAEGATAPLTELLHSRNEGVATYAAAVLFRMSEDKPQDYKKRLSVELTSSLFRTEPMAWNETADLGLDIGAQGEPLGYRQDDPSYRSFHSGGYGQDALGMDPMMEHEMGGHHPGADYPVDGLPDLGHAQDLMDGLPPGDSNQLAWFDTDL

Substance	Kd (β-catenin [1]) [nM]	Kd (β-catenin [2]) [nM]	Kd [3] [nM]	Kd [4] [nM]
E-cadherin cytoplasmic domain (from UniProt P12830)	46	0.052		
pHMR-1_(cyto80) (domain or fragment)			3.1	23
HMR-1_(cyto80) (domain or fragment)			380	
HMR-1(T1215A)_(cyto80), non-phosphorylated (domain or fragment)			610	
pHMR-1(T1215A)_(cyto80) (domain or fragment)			26	
